Results taken from the supplement of paper PMC10724198.
± gives the standard deviation of the averaged measurements.

Tested on: Saccharomyces cerevisiae
Test: protein stability index of tFT-peptide fusion (C-terminal peptide) (PSI (0-1 scale)); higher = more stable (slower turnover)
Details: genetic background: wild type; temperature: 30 C
Method: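 Multiplexed protein stability (MPS) profiling in S. cerevisiae. Random 12-aa peptides (tFT-X12 library) are fused to the C-terminus of a sfGFP-mCherry tandem fluorescent timer, after mCherry and a GGGS linker. Cells are FACS-sorted into 8 mCherry/sfGFP bins and deep-sequenced. The protein stability index (PSI) is the read-weighted bin average, scaled from 0 (unstable) to 1 (stable). Only peptides with >10 reads are reported; cells were grown at 30 °C in SC-His with glucose.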
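Note: PSI is a weighted mean of sequencing reads over stability bins, variants kept only with over 10 reads, mCherry proximal and sfGFP distal, peptide attached via GGGS linker.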

Sequence | protein stability index
GEGRRWGSFWVG | 0.6701 ± 0.0039
GEGVPVWNQCVE | 0.658 ± 0.0091
GEGVVRGDGVRG | 0.656 ± 0.041
GEIMGEVARREK | 0.66 ± 0.048
GELGIECREVVG | 0.704 ± 0.087
GELVVRVGEWGC | 0.7051 ± 0.0027
GEQAGLSLTAGP | 0.678 ± 0.03
GERRREKRKNSG | 0.726 ± 0.046
GESTNVYTTHWI | 0.736 ± 0.011
GESWCGLVWPGG | 0.675 ± 0.013
GEVILERKRRKI | 0.629 ± 0.057
GEVKRSLGQVRG | 0.695 ± 0.007
GEWRHVFSVTRC | 0.7475 ± 0.0025
GEWVNLGFGFLF | 0.781 ± 0.11
GEYYKRKMNGSK | 0.718 ± 0.11
GFARICVLLPSS | 0.727 ± 0.039
GFEIFYLVLGIP | 0.52979 ± 0.00023
GFETGLGKGAGW | 0.714 ± 0.019
GFGCVGSIFVIY | 0.66 ± 0.018
GFGFMGLRFGVD | 0.762 ± 0.13
GFGPPGPCSYVR | 0.691 ± 0.042
GFGSGVVAGSSL | 0.682 ± 0.044
GFISFASRISTS | 0.722 ± 0.032
GFLEAIMRFCGL | 0.719 ± 0.0081
GFLVNNCLGFLW | 0.782 ± 0.051

Sequence | protein stability index
GFLVPVALCPVV | 0.557 ± 0.03
GFPGLFCGPVRF | 0.742 ± 0.054
GFPGSYSKVLCL | 0.6619 ± 0.0032
GFRPVVAGIGHS | 0.6632 ± 0.0061
GFSAGVSHSGAG | 0.661 ± 0.017
GFSRELTLARLI | 0.613 ± 0.017
GFTGGGRRWLGG | 0.713 ± 0.056
GFTGWGRRWLGG | 0.713 ± 0.059
GFVGVGEEEIFG | 0.7217 ± 0.006
GFVRYPYFAFGR | 0.687 ± 0.093
GGAGGNLAPGRG | 0.638 ± 0.026
GGALTADTTIAP | 0.662 ± 0.087
GGAMLMLAVEGV | 0.609 ± 0.044
GGAWRGWCVGVR | 0.644 ± 0.1
GGAYRCFSIQRS | 0.687 ± 0.0078
GGCAGGGGVVVR | 0.6851 ± 0.0046
GGCAGRGGVVVR | 0.6904 ± 0.0029
GGCEWWSGGRGG | 0.733 ± 0.026
GGCGGVCGACVV | 0.695 ± 0.011
GGCGLGGVLEVG | 0.676 ± 0.017
GGCGNVGVGVSV | 0.694 ± 0.012
GGCGYGELWAWA | 0.7908 ± 0.0038
GGCPPFGVSSVG | 0.708 ± 0.013
GGCRGDGMMGVG | 0.552 ± 0.072
GGCSCLGVGCLS | 0.675 ± 0.045

Sequence | protein stability index
GGCVWWSWGRGG | 0.652 ± 0.016
GGDARGRGGMPD | 0.712 ± 0.12
GGDIRGGVRHIG | 0.725 ± 0.026
GGEGRGRVWEIS | 0.686 ± 0.068
GGELRPKGVRGV | 0.656 ± 0.046
GGENGLGGLGVG | 0.626 ± 0.14
GGFESRVVGGVG | 0.526 ± 0.034
GGFRDIAYCLVP | 0.613 ± 0.0072
GGGARWAGLGEG | 0.687 ± 0.06
GGGCERGVGLLG | 0.626 ± 0.066
GGGCGLFVFLSL | 0.63 ± 0.058
GGGCQVSPPSLL | 0.7076 ± 0.0024
GGGCVGGGSSCA | 0.701 ± 0.12
GGGGGCGRAGGG | 0.714 ± 0.053
GGGGGCLSGRLG | 0.654 ± 0.028
GGGGGCVGRLWG | 0.742 ± 0.026
GGGGGEWCLVRL | 0.688 ± 0.027
GGGGGGGGYLGA | 0.715 ± 0.027
GGGGGGGWGAVG | 0.688 ± 0.0076
GGGGGGLLDVGV | 0.685 ± 0.027
GGGGGLVVFGWK | 0.687 ± 0.007
GGGGGVRLVVSR | 0.668 ± 0.027
GGGGGVSGGGVF | 0.672 ± 0.063
GGGGRGLLDVGV | 0.689 ± 0.031
GGGGRGVGRGWG | 0.675 ± 0.0046

Sequence | protein stability index
GGGGSFLVGLGL | 0.647 ± 0.056
GGGGSRWAGPRC | 0.636 ± 0.031
GGGGVVRAWGLR | 0.738 ± 0.043
GGGLAPADQVGV | 0.729 ± 0.043
GGGLGAGWGVWG | 0.68 ± 0.035
GGGLGGGGFRGG | 0.749 ± 0.033
GGGLGGLGCFMV | 0.698 ± 0.036
GGGLSWARRSPS | 0.683 ± 0.069
GGGLVLSGWCVW | 0.751 ± 0.026
GGGREGEIGGGG | 0.5705 ± 0.0013
GGGRGGFRVVVG | 0.744 ± 0.042
GGGRGGSTPALG | 0.667 ± 0.03
GGGRGWAGENTR | 0.704 ± 0.028
GGGRPGLRALSY | 0.747 ± 0.034
GGGSGGEAVRVW | 0.645 ± 0.026
GGGSGGRRLVRF | 0.726 ± 0.023
GGGSHASERAAR | 0.723 ± 0.022
GGGSIAPRSVGT | 0.7649 ± 0.0021
GGGSVGMWGWWV | 0.625 ± 0.075
GGGTGALGTVRW | 0.765 ± 0.055
GGGVGLRGGWDG | 0.71 ± 0.044
GGGVRGGVLVLG | 0.51 ± 0.03
GGGVSSEWSGCR | 0.665 ± 0.0087
GGGVWGVGRGIL | 0.6 ± 0.013
GGGWGGGGSSCA | 0.659 ± 0.055

Sequence | protein stability index
GGGWGSMDLRDR | 0.712 ± 0.016
GGGWSRGGVGDR | 0.672 ± 0.027
GGGWSRRGVGDR | 0.673 ± 0.028
GGIRGEGEVGKR | 0.69 ± 0.021
GGKLNRAGRATG | 0.697 ± 0.088
GGLACTLAAFYL | 0.733 ± 0.047
GGLGFVGGVRVQ | 0.6705 ± 0.00086
GGLICRHGVGRG | 0.705 ± 0.024
GGLRRMGVRPCA | 0.715 ± 0.21
GGLSGGMRIEDS | 0.686 ± 0.028
GGLVTSGGWRCA | 0.71 ± 0.065
GGLWLCFVPEVM | 0.563 ± 0.0077
GGMAWGPVCGAG | 0.6906 ± 0.0018
GGNRRIKEKSRL | 0.785 ± 0.016
GGPESMDILRFR | 0.62 ± 0.069
GGPPSPPFFDAV | 0.741 ± 0.081
GGPTCSSSCDPV | 0.67 ± 0.038
GGRCGEGLVREG | 0.702 ± 0.021
GGRGGEGRGGSG | 0.658 ± 0.018
GGRGPSAVGSGV | 0.74 ± 0.085
GGRGRGMWGIFG | 0.681 ± 0.0096
GGRGRWEMVGRT | 0.7 ± 0.021
GGRGSGLVGCSL | 0.6 ± 0.065
GGRGVVVVQGAG | 0.6978 ± 0.0013
GGRGWRSGTEGE | 0.675 ± 0.013

Sequence | protein stability index
GGRGWWRGTGSG | 0.719 ± 0.056
GGRIRLLTYFGR | 0.601 ± 0.042
GGRLGRGVVRGW | 0.704 ± 0.011
GGRRVWAGRTGV | 0.734 ± 0.077
GGRSGGWCGCWG | 0.711 ± 0.032
GGRVAGSMGGGG | 0.719 ± 0.056
GGRVLKFLLGRL | 0.668 ± 0.15
GGRVWGAVGAGP | 0.627 ± 0.082
GGSALGCLCRWM | 0.823 ± 0.029
GGSEEGGKAAKT | 0.652 ± 0.015
GGSGGAVEERGG | 0.6573 ± 0.0013
GGSRGVGASEEC | 0.6515 ± 0.005
GGSRRGRRLLTQ | 0.699 ± 0.037
GGTGWVGEMGGR | 0.796 ± 0.069
GGTHCRVCCVLF | 0.659 ± 0.02
GGVATQARQTCN | 0.742 ± 0.17
GGVFTHLEKAVD | 0.649 ± 0.046
GGVGAFAARRFA | 0.634 ± 0.012
GGVGCLGVFSVG | 0.7 ± 0.013
GGVGGAGGRNRG | 0.674 ± 0.014
GGVGGCARVWPR | 0.654 ± 0.061
